Assay results published in paper PMC12046042 (2025).

Assays:
Assay in all cases: SPR
[1] = target: FcγRIIa-131R
[2] = target: FcγRIIIa-158V
[3] = target: FcγRIIa-131H
[4] = target: FcγRIIIa-158F
[5] = target: FcγRIIb
[6] = target: T1, FcγRI (CD64) extracellular domain (UniProt P12314 16-292)
T1 chain: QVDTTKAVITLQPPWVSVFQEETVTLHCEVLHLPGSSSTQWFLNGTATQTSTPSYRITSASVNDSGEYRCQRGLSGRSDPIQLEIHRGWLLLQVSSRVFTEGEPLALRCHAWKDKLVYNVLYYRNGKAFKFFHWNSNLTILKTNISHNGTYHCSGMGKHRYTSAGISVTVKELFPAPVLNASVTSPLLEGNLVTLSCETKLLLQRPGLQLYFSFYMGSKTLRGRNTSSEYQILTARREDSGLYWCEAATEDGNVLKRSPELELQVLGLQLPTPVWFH

Kd [1]: 1800 nM
Kd [2]: 5000 nM
Kd [3]: 4400 nM
Kd [4]: > 10000 nM
Kd [5]: 1900 nM
Kd [6]: 0.474 nM
B1: LY3454738 IgG4 S228P (ucenprubart) (antibody)
chain 1: QVQLVQSGAEVKKPGASVKVSCKASGFSFSSGYYMAWVRQAPGQGLEWMGLIGVGSGSLWYAQKFQGRVTMTRDTSTSTVYMELSSLRSEDTAVYYCARHFALSDPFNLWGQGTLVTVSS
chain 2: EIVLTQSPDFQSVTPKEKVTITCQASESIDSYLLWYQQKPDQSPKLLIKQASTLASGVPSRFSGSGSGTDFTLTINSLEAEDAATYYCQNYYDISSNDFGGGTKVEIK
